Molecular target: ZIKV sE-WT protein (Zika virus)
Test: SPR (BIOCORE8000), sE amine-coupled on CM5 chip, antibody as mobile phase

2A10G6 antibody
Kd: 9.13 nM
